Data: the Immune Epitope Database (IEDB)
pIC50: −log10 of the molar value.

Tests used:
Assay in all cases: IEDB peptide-MHC binding, purified MHC/competitive/radioactivity; ≥ and ≤ were set here for values at or beyond the usual limits of such assays
Settings in all cases: source organism: Bordetella pertussis
HLA-B*44:03 = target: HLA-B*44:03
HLA-B*57:01 = target: HLA-B*57:01
HLA-A*02:01 = target: HLA-A*02:01
HLA-B*53:01 = target: HLA-B*53:01
HLA-B*07:02 = target: HLA-B*07:02

AAMQGAVVH
pIC50 (HLA-B*44:03): ≤ 4.11

AAPAAHADW
pIC50 (HLA-B*57:01): 4.70

GLTDGVSRI
pIC50 (HLA-A*02:01): 4.16

HSLYASYEY
pIC50 (HLA-B*53:01): 4.37
pIC50 (HLA-B*57:01): 6.93

IAHRTELRG
pIC50 (HLA-B*57:01): 4.18

IENTAKLSG
pIC50 (HLA-B*44:03): 4.35

LNDSKITMG
pIC50 (HLA-B*53:01): ≤ 4.11

LVYYESIAY
pIC50 (HLA-B*53:01): 4.92

RVTVSGGSL
pIC50 (HLA-B*07:02): 4.84

SEAMAAWSE
pIC50 (HLA-B*44:03): 5.12

SPQPIRATV
pIC50 (HLA-B*07:02): 6.83

WLTWLAILA
pIC50 (HLA-A*02:01): 4.40
